Measured values from patent US20070123452A1, “Method of selecting novel immunosuppressant” (Astellas Pharma Inc., priority 2002, published 2007).

T1: HDAC3, endogenous protein of the transfected cells, O15379
T1 chain: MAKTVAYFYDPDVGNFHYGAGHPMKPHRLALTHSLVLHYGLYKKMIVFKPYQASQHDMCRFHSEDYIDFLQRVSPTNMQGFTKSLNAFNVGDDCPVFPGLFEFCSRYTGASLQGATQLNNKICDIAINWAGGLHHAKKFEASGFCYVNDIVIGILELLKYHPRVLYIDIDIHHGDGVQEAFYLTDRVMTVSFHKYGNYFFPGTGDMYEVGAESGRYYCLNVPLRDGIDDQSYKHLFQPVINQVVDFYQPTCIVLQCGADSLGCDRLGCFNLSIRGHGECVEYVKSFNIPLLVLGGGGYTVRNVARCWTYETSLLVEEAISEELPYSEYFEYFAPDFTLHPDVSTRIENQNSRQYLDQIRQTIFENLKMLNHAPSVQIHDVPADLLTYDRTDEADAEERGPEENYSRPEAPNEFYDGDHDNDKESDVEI


How the values were obtained:
[1] = target: T1, HDAC3, endogenous protein of the …
[2] = target: N-CoR (nuclear receptor corepressor), endogenous protein of the transfected cells, O75376
Chain of N-CoR (nuclear receptor corepressor), endogenous protein of the transfected cells, O75376 (O75376 whole entry): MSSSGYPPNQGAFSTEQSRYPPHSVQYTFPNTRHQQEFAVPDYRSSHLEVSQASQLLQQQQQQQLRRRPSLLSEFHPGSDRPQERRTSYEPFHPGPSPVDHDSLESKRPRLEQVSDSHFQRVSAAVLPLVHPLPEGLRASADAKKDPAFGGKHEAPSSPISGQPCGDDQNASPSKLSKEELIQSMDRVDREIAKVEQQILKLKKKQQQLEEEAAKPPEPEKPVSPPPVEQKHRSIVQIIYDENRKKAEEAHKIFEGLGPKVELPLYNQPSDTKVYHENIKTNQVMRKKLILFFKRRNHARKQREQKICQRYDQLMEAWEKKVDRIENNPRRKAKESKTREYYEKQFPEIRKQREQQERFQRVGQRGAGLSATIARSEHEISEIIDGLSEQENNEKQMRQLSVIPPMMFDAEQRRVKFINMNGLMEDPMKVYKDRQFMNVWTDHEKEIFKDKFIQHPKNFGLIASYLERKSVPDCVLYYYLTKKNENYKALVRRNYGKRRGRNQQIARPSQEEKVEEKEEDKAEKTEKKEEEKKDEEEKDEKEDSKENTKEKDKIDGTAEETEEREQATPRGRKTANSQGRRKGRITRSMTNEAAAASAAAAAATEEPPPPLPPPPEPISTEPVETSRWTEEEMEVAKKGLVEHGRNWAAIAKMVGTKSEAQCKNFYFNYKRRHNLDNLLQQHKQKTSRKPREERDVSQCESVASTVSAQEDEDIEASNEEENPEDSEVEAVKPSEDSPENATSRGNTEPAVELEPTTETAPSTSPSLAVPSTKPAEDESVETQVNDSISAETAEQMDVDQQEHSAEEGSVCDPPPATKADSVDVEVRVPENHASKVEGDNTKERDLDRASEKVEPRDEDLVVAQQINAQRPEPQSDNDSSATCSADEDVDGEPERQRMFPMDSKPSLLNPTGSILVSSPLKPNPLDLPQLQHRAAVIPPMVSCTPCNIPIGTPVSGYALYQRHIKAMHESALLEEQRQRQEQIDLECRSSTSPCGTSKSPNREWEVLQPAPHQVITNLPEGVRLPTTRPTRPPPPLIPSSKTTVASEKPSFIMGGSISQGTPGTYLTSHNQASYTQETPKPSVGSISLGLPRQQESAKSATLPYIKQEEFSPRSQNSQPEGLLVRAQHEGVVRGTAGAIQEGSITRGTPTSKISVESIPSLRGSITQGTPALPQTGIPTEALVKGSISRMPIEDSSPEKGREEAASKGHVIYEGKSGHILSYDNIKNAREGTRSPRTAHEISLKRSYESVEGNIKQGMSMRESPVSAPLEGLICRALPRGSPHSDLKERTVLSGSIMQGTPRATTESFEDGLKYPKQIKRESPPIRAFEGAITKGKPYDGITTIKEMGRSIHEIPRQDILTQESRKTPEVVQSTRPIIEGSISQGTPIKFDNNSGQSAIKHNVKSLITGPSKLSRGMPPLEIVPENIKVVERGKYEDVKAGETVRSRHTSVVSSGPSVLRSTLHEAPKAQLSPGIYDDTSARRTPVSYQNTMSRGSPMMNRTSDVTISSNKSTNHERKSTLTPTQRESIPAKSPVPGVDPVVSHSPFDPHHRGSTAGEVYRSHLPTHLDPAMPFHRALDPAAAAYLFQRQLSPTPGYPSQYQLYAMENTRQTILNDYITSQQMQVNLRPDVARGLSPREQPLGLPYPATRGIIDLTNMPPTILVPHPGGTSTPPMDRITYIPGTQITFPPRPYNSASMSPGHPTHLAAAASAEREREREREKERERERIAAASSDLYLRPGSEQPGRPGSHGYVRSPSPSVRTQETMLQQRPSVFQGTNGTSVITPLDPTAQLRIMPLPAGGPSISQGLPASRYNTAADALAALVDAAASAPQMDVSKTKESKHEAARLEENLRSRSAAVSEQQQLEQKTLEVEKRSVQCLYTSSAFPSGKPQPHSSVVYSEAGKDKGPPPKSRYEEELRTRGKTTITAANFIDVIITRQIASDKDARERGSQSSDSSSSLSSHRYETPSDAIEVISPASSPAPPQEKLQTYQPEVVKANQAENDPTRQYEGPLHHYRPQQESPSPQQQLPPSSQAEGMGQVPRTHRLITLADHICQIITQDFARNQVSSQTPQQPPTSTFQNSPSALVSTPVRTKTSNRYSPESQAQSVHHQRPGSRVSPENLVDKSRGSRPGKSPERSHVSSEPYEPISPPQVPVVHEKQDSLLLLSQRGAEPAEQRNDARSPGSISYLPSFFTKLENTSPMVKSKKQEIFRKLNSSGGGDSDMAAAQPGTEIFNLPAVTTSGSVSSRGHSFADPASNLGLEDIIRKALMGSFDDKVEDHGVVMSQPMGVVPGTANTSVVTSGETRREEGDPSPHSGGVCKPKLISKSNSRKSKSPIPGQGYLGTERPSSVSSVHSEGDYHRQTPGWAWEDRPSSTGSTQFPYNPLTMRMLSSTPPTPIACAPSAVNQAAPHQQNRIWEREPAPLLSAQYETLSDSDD

| Protein | HDAC activity with [3H]-labeled acetylated histone as a substrate [1] | HDAC activity with [3H]-labeled acetylated histone as a substrate [2] |
| --- | --- | --- |
| HDAC4 dominant negative variant (H863L) with C-terminal Flag (expressed from pEAK-HDAC4 (H863L)) (protein) MSSQSHPDGLSGRDQPVELLNPARVNHMPSTVDVATALPLQVAPSAVPMDLRLDHQFSLPVAEPALREQQLQQELLALKQKQQIQRQILIAEFQRQHEQLSRQHEAQLHEHIKQQQEMLAMKHQQELLEHQRKLERHRQEQELEKQHREQKLQQLKNKEKGKESAVASTEVKMKLQEFVLNKKKALAHRNLNHCISSDPRYWYGKTQHSSLDQSSPPQSGVSTSYNHPVLGMYDAKDDFPLRKTASEPNLKLRSRLKQKVAERRSSPLLRRKDGPVVTALKKRPLDVTDSACSSAPGSGPSSPNNSSGSVSAENGIAPAVPSIPAETSLAHRLVAREGSAAPLPLYTSPSLPNITLGLPATGPSAGTAGQQDTERLTLPALQQRLSLFPGTHLTPYLSTSPLERDGGAAHSPLLQHMVLLEQPPAQAPLVTGLGALPLHAQSLVGADRVSPSIHKLRQHRPLGRTQSAPLPQNAQALQHLVIQQQHQQFLEKHKQQFQQQQLQMNKIIPKPSEPARQPESHPEETEEELREHQALLDEPYLDRLPGQKEAHAQAGVQVKQEPIESDEEEAEPPREVEPGQRQPSEQELLFRQQALLLEQQRIHQLRNYQASMEAAGIPVSFGGHRPLSRAQSSPASATFPVSVQEPPTKPRFTTGLVYDTLMLKHQCTCGSSSSHPEHAGRIQSIWSRLQETGLRGKCECIRGRKATLEELQTVHSEAHTLLYGTNPLNRQKLDSKKLLGSLASVFVRLPCGGVGVDSDTIWNEVHSAGAARLAVGCVVELVFKVATGELKNGFAVVRPPGHHAEESTPMGFCYFNSVAVAAKLLQQRLSVSKILIVDWDVHHGNGTQQAFYSDPSVLYMSLLRYDDGNFFPGSGAPDEVGTGPGVGFNVNMAFTGGLDPPMGDAEYLAAFRTVVMPIASEFAPDVVLVSSGFDAVEGHPTPLGGYNLSARCFGYLTKQLMGLAGGRIVLALEGGHDLTAICDASEACVSALLGNELDPLPEKVLQQRPNANAVRSMEKVMEIHSKYWRCLQRTTSTAGRSLIEAQTCENEEAETVTAMASLSVGVKPAEKRPDEEPMEEEPPLDYKDDDDK | had decreased HDAC activity compared to wild-type HDAC4 | had decreased HDAC activity compared to wild-type HDAC4 |
| HDAC4 dominant negative variant (H802K, H803L) with C-terminal Flag (expressed from pEAK-HDAC4 (H802K, H803L)) (protein) MSSQSHPDGLSGRDQPVELLNPARVNHMPSTVDVATALPLQVAPSAVPMDLRLDHQFSLPVAEPALREQQLQQELLALKQKQQIQRQILIAEFQRQHEQLSRQHEAQLHEHIKQQQEMLAMKHQQELLEHQRKLERHRQEQELEKQHREQKLQQLKNKEKGKESAVASTEVKMKLQEFVLNKKKALAHRNLNHCISSDPRYWYGKTQHSSLDQSSPPQSGVSTSYNHPVLGMYDAKDDFPLRKTASEPNLKLRSRLKQKVAERRSSPLLRRKDGPVVTALKKRPLDVTDSACSSAPGSGPSSPNNSSGSVSAENGIAPAVPSIPAETSLAHRLVAREGSAAPLPLYTSPSLPNITLGLPATGPSAGTAGQQDTERLTLPALQQRLSLFPGTHLTPYLSTSPLERDGGAAHSPLLQHMVLLEQPPAQAPLVTGLGALPLHAQSLVGADRVSPSIHKLRQHRPLGRTQSAPLPQNAQALQHLVIQQQHQQFLEKHKQQFQQQQLQMNKIIPKPSEPARQPESHPEETEEELREHQALLDEPYLDRLPGQKEAHAQAGVQVKQEPIESDEEEAEPPREVEPGQRQPSEQELLFRQQALLLEQQRIHQLRNYQASMEAAGIPVSFGGHRPLSRAQSSPASATFPVSVQEPPTKPRFTTGLVYDTLMLKHQCTCGSSSSHPEHAGRIQSIWSRLQETGLRGKCECIRGRKATLEELQTVHSEAHTLLYGTNPLNRQKLDSKKLLGSLASVFVRLPCGGVGVDSDTIWNEVHSAGAARLAVGCVVELVFKVATGELKNGFAVVRPPGKLAEESTPMGFCYFNSVAVAAKLLQQRLSVSKILIVDWDVHHGNGTQQAFYSDPSVLYMSLHRYDDGNFFPGSGAPDEVGTGPGVGFNVNMAFTGGLDPPMGDAEYLAAFRTVVMPIASEFAPDVVLVSSGFDAVEGHPTPLGGYNLSARCFGYLTKQLMGLAGGRIVLALEGGHDLTAICDASEACVSALLGNELDPLPEKVLQQRPNANAVRSMEKVMEIHSKYWRCLQRTTSTAGRSLIEAQTCENEEAETVTAMASLSVGVKPAEKRPDEEPMEEEPPLDYKDDDDK | had decreased HDAC activity compared to wild-type HDAC4 | had decreased HDAC activity compared to wild-type HDAC4 |
